This passage reports Ki and stoichiometry N results from paper PMC3210814.

Assay [1] concerns the target bovine pancreatic trypsin (bovine). Briefly: enzyme inhibition assay (chromogenic substrate), Lineweaver-Burk plots and replot of the slopes; trypsin 400 nM pre-incubated with the inhibitor for 30 min; 100 mM Tris-HCl pH 8.0, 10 mM CaCl2, 25°C; substrate Nα-benzoyl-L-arginine 4-nitroanilide 0.1 to 0.8 mM; p-nitroaniline read at 405 nm for 5 min.
The target is the same in assay [2]. As to the kind of experiment: enzyme inhibition assay (chromogenic substrate), inhibition against inhibitor concentration; trypsin 400 nM incubated with 0 to 400 nM rSdPI for 30 min; 100 mM Tris-HCl pH 8.0, 10 mM CaCl2, 25°C.

Chain of bovine pancreatic trypsin (bovine) (P00760 24-246): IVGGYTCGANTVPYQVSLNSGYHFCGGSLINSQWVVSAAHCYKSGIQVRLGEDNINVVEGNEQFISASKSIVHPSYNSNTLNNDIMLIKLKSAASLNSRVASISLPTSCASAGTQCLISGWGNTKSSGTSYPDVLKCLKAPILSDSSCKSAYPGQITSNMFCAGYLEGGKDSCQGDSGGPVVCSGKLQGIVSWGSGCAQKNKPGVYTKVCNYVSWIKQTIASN

B1: recombinant SdPI peptide (scorpion-derived protease inhibitor), wild type (peptide)
chain: KNKCQLPSDVGKGKASFTRYYYNEEGGKCETFIYGGVGGNSNNFLTKEDCCRECAQGSC
Consider B1, for which the Ki in assay [1] is 160 nM. In assay [2], this molecule had a stoichiometry N of 1.

B2: SdPI Ala15Phe mutant (peptide)
chain: KNKCQLPSDVGKGKFSFTRYYYNEEGGKCETFIYGGVGGNSNNFLTKEDCCRECAQGSC
In assay [1], B2 gave a Ki of 62000 nM.

B3: SdPI G13F mutant (peptide)
chain: KNKCQLPSDVGKFKASFTRYYYNEEGGKCETFIYGGVGGNSNNFLTKEDCCRECAQGSC
B3 showed an inhibition constant Ki in assay [1] of 260 nM.

B4: SdPI K12A mutant (peptide)
chain: KNKCQLPSDVGAGKASFTRYYYNEEGGKCETFIYGGVGGNSNNFLTKEDCCRECAQGSC
In the case of B4, in assay [1], the Ki was 290 nM.
